The supplement of paper PMC9732359
± gives the uncertainty stated by the source.

Test: protein stability index of a GFP-peptide fusion (yeast GPS) (PSI 1-4); higher = more stable; sorted into four equal gates, so the index is relative within each strain
Procedure, shortened: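 Tiled yeast protein peptides of 17 residues were each joined downstream of GFP, on plasmids that also express Cherry. The pooled library was maintained in yeast, and mid-log cultures in leucine-free medium were sorted into four equal gates on the GFP/Cherry ratio. Plasmids from every gate were amplified by PCR and sequenced on Illumina, with barcodes linking reads to strains. The protein stability index of a peptide is its gate-number-weighted read frequency summed over the gates.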

Sequence | protein stability index (doa10∆) | protein stability index (pdr5∆) | protein stability index (san1∆) | protein stability index (ubr1∆)
DVVTREYTINLHKRLHG [RPL31A] | 2.62 ± 0.12 | 2.55 ± 0.09 | 2.66 ± 0.069 | 1.71 ± 0.067
EAQANLLTAKHGMTLRE [RPO21] | 2.98 ± 0.18 | 3.11 ± 0.099 | 3.14 ± 0.063 | 2.8 ± 0.11
DSVTTETGKLLSGLAQR [BRN1] | 2.5 ± 0.12 | 2.87 ± 0.099 | 2.66 ± 0.15 | 2.66 ± 0.072
IRIFRSELQRLSHENNV [RPT5] | 2.67 ± 0.11 | 3.21 ± 0.088 | 2.96 ± 0.052 | 2.9 ± 0.091
IDEDIGNNVQENELVIT [RMP1] | 3.28 ± 0.17 |  |  | 3.39 ± 0.16
ADTIDHDELIDSIPRDV [YGL172W/NUP49] | 2.95 ± 0.098 | 3.24 ± 0.085 | 3.07 ± 0.056 | 2.88 ± 0.075
TYEAIDVPGRELKYELI [RPB2] | 3.01 ± 0.15 | 3.13 ± 0.098 | 3.1 ± 0.18 | 3.81 ± 0.16
ETVPDNVKTSVSQLYRI [RPO31] | 2.92 ± 0.1 | 3.16 ± 0.13 | 3.21 ± 0.078 | 3.2 ± 0.069
GMKVKADRDESSPYAAM [RPS14B] | 1.32 ± 0.067 | 1.09 ± 0.12 | 1.14 ± 0.22 | 1.2 ± 0.089
FLVLYDVKTAEEASQLI [NUT1] | 1.45 ± 0.047 | 1.93 ± 0.077 | 2.78 ± 0.061 | 3.01 ± 0.047
HESTSRTDQYTIDNIDS [YMR129W/POM152] | 2.84 ± 0.053 | 2.9 ± 0.053 | 2.9 ± 0.045 | 2.86 ± 0.045
KGEVYTIPLGGSVHKLP [PRE3] | 2.97 ± 0.065 | 2.95 ± 0.082 | 2.84 ± 0.088 | 3.04 ± 0.044
LYEKLKQEIMMSDLFTF [ISW2] | 2.69 ± 0.099 | 2.34 ± 0.063 | 2.14 ± 0.1 | 2.64 ± 0.06
PQRLTVLRLATNKGPLA [MCD1] | 2.78 ± 0.099 | 2.39 ± 0.073 | 2.8 ± 0.074 | 2.42 ± 0.074
NESFNRRISSMPGGYFH [YAR002W/NUP60] | 2.88 ± 0.09 | 3.17 ± 0.089 | 3.07 ± 0.099 | 3.04 ± 0.043
QTDADRVKDPQWLIMLG [RIP1] | 3.19 ± 0.16 | 3.22 ± 0.11 |  | 2.6 ± 0.12
KLLQLAGVEDVYTQSNG [RPS2] | 1.56 ± 0.066 | 2.64 ± 0.13 | 3.19 ± 0.13 | 3.13 ± 0.086
FVNETPRVIEPVYTAQW [PRP8] | 1.57 ± 0.16 | 2.31 ± 0.15 | 2.19 ± 0.16 | 1.19 ± 0.1
NPFTSATSSTNANAGLF [YOR098C/NUP1] | 2.72 ± 0.077 | 2.84 ± 0.1 | 2.82 ± 0.093 | 3.31 ± 0.074
HTLCNRCGRRSFHVQKK [RPL37A] | 2.98 ± 0.035 | 2.72 ± 0.048 | 2.83 ± 0.031 | 2.85 ± 0.029
QLVPIRLEFDQDRDRFF [SNF5] | 3.14 ± 0.13 | 2.98 ± 0.16 | 2.98 ± 0.24 | 3.1 ± 0.078
KQTAAYRTPGSSGVLSS [SSN2] | 2.88 ± 0.063 | 3.04 ± 0.063 | 2.87 ± 0.077 | 2.88 ± 0.045
PVGACATSVESVDIGVE [FAS2] | 2.92 ± 0.13 | 2.9 ± 0.11 | 2.12 ± 0.085 | 2.86 ± 0.089
SRENNSEYMVFGKLAFP [YJL039C/NUP192] | 2.49 ± 0.064 | 2.54 ± 0.072 | 2.97 ± 0.069 | 2.79 ± 0.082
LQSISSLTISLYASDYA [RPN7] | 1.71 ± 0.031 | 1.84 ± 0.03 | 1.83 ± 0.039 | 1.95 ± 0.027

Sequence | protein stability index (doa10∆) | protein stability index (pdr5∆) | protein stability index (san1∆) | protein stability index (ubr1∆)
VNIVEKDGAKFIEVRNF [RPL9A] | 3.38 ± 0.19 |  | 3.02 ± 0.2 | 1.71 ± 0.24
DNTVRTSANGIVQFTYG [RPO31] | 2.67 ± 0.1 | 2.76 ± 0.1 | 2.25 ± 0.17 | 2.53 ± 0.11
ANANANATANATANATA [SNF11] | 3.14 ± 0.037 | 3.37 ± 0.037 | 3.285 ± 0.031 | 3.342 ± 0.029
SNKPIFLFAPELGAINL [SWI1] | 2.23 ± 0.062 | 1.91 ± 0.051 | 2.08 ± 0.089 | 2.11 ± 0.046
EKDCSLRAIEKNDDNSC [YIL149C/MLP2] | 2.32 ± 0.1 | 2.67 ± 0.077 | 3.06 ± 0.082 | 1.86 ± 0.11
KHEDFVEGISEVQARKS [RPT5] | 3.7 ± 0.24 |  |  | 3.41 ± 0.2
KWPEYVRLQRQKKILSI [RPL8B] | 1.18 ± 0.061 | 1.16 ± 0.056 | 1.14 ± 0.098 | 1.17 ± 0.039
GGRMFAPTKTWRKWNVK [RPL4A] | 2.87 ± 0.12 | 2.88 ± 0.11 | 3.07 ± 0.065 | 2.16 ± 0.056
RNMIIVPEMIGSVVGIY [RPS15] | 1.31 ± 0.094 | 1.42 ± 0.057 | 1.53 ± 0.13 | 1.45 ± 0.057
SGEDTNVGLPILKSLKN [YOR098C/NUP1] | 2.95 ± 0.1 | 3.16 ± 0.13 | 2.85 ± 0.069 | 3.28 ± 0.12
RFEVINNETEQLKAEEK [SMC1] | 1.72 ± 0.08 | 2.06 ± 0.092 | 3.05 ± 0.13 | 2.6 ± 0.12
TRNSNNLAIVELVRLLI [BRR2] | 2.56 ± 0.06 | 2.29 ± 0.049 | 2.53 ± 0.066 | 2.4 ± 0.049
LLKEKPNALKPLSESLR [RRP6] | 2.71 ± 0.059 | 2.83 ± 0.065 | 2.91 ± 0.077 | 2.94 ± 0.044
LIIDGFKSYATRTVITD [SMC2] | 2.82 ± 0.11 | 3.21 ± 0.09 | 2.99 ± 0.071 | 3.12 ± 0.083
ARHKKKVENLDYMYENG [YML031W/NDC1] | 3.41 ± 0.15 | 3.37 ± 0.14 | 3.08 ± 0.12 | 
SANGYLNATTAMDLAQM [BRR2] | 3.23 ± 0.17 |  | 3.15 ± 0.088 | 
NFILEVFGTIIPKISDY [YJL039C/NUP192] | 2.05 ± 0.17 | 1.68 ± 0.22 |  | 1.61 ± 0.26
KNDKLIKIEDFVDDMLR [SNF5] | 2.88 ± 0.063 | 2.73 ± 0.066 | 1.98 ± 0.078 | 2.68 ± 0.07
SQSLGVSNKFEKIFHYG [PUP3] | 3.47 ± 0.13 | 3.5 ± 0.17 | 2.95 ± 0.13 | 3.61 ± 0.14
VQRQIEQQKGQQTAQTQ [SNF5] | 3.41 ± 0.08 | 3.3 ± 0.078 | 3.3 ± 0.061 | 3.07 ± 0.055
PVAKWFVKFITYLTQEI [SIN4] | 2.32 ± 0.048 | 1.88 ± 0.046 | 1.76 ± 0.078 | 2.07 ± 0.064
QLGEWAGLGKIDREGNA [RPS12] | 3.67 ± 0.28 |  | 3.4 ± 0.26 | 3.35 ± 0.14
ENAYDNPLADAEEALEP [PRE4] | 3.1 ± 0.086 | 3 ± 0.082 | 3.1 ± 0.063 | 3.13 ± 0.057
TLLSPKDNGMLIIDGQI [RPO21] | 2.59 ± 0.076 | 2.29 ± 0.078 | 2.81 ± 0.074 | 1.78 ± 0.058
FNIISMTLKEMYQMITM [SMC4] | 1.92 ± 0.074 | 1.97 ± 0.054 | 2.22 ± 0.075 | 2.15 ± 0.042
